Consider three molecules from patent US20240270828A1 (UAB RESEARCH FOUNDATION, published 2024).

The target of test [1] is T1, MERS-CoV S2 (Sino Biological, 40070-V08) (MERS-CoV, UniProt K9N5Q8 726-1296).
T1 sequence: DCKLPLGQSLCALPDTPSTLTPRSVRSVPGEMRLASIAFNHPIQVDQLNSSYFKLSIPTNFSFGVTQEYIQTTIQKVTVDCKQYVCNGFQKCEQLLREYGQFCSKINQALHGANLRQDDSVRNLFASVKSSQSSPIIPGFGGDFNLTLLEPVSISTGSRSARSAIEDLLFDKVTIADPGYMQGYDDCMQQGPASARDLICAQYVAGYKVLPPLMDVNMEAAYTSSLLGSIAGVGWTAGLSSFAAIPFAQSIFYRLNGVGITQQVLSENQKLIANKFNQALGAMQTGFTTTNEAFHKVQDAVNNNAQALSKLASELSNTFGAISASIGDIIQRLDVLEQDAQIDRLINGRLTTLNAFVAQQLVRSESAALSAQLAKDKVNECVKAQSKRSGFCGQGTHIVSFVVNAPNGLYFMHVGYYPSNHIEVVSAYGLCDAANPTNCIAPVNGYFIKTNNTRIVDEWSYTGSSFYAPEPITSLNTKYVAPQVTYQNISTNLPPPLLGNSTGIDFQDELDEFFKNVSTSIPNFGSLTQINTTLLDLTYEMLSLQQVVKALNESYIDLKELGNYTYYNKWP
Put plainly: SPR, as far as told; target printed as MERS-CoV SH. (In SPR one partner is held on a chip, and binding of the other changes the refractive index at the surface.)

Test [2] addresses Spike of live SARS-CoV-2 WT virus (SARS-CoV-2, UniProt P0DTC2 14-1273). As to the kind of experiment: cell-based or functional assay.
Test [3] deals with T2, SARS-CoV Spike protein (SARS-CoV, UniProt P59594 14-1195). Put plainly: SPR/BLI, method not told apart.
For test [4], the target named is T1, MERS-CoV S2 (Sino Biological, 40070-V08). As to the kind of experiment: SPR/BLI, method not told apart.
The target in test [5] is T3, SARS-CoV-2 S1+S2 (40589-V08B1, Sino Biological) (SARS-CoV-2, UniProt P0DTC2 16-1213). As to the kind of experiment: ELISA on coated protein, anti-human IgG-HRP; AUC of the OD. Background: In an ELISA, binding on a coated surface is turned into a signal by an enzyme label.
Test [6] addresses T4, SARS-CoV-2 S2 (40590-V08B, Sino Biological) (SARS-CoV-2, UniProt P0DTC2 686-1213).
T4 construct: domain: S2
The test is described as above.

Test [7] addresses T5, SARS-CoV-2 S1 (40591-V08H3, Sino Biological) (SARS-CoV-2, UniProt P0DTC2 16-685).
T5 construct: domain: S1
Described as above.

For test [8], the target named is T2, SARS-CoV Spike protein.
For test [9], the target named is T3, SARS-CoV-2 S1+S2 (40589-V08B1, Sino …). Put plainly: ELISA, hmAb at 10 and 1 ug/ml in duplicate; AUC.
Test [10] has as its target T4, SARS-CoV-2 S2 (40590-V08B, Sino …). Put plainly: ELISA, hmAb at 10 and 1 ug/ml in duplicate; AUC.
In test [11] the target is T5, SARS-CoV-2 S1 (40591-V08H3, Sino …). As to the kind of experiment: ELISA, hmAb at 10 and 1 ug/ml in duplicate; AUC.
For test [12], the target named is T6, OC43 S2 (40607-V08B1, Sino Biological) (HCoV-OC43, UniProt P36334 759-1297).
T6 construct: domain: S2
T6 sequence: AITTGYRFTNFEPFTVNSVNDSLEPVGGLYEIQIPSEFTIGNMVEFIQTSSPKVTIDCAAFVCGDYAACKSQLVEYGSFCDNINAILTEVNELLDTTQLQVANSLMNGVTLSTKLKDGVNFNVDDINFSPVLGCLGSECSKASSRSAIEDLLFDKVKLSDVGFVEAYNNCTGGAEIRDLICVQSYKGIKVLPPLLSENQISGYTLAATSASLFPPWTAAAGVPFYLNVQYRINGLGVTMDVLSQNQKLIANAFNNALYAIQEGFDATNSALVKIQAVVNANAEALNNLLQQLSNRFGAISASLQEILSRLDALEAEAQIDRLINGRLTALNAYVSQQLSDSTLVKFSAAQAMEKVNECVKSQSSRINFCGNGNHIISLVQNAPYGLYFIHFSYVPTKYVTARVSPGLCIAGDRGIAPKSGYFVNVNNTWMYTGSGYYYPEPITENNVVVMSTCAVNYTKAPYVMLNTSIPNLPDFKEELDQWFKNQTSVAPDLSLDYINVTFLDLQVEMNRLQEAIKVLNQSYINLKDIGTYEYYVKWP
Put plainly: ELISA titration of 1249A8 on coated Spike proteins, mean Abs at 450 nm.

For test [13], the target named is T1, MERS-CoV S2 (Sino Biological, 40070-V08). As to the kind of experiment: BLI, mAb on anti-human Fc biosensor, MERS Spike protein in solution.
The target in test [14] is SARS-CoV-2 Wuhan-Hu-1 Spike protein (NR-53524 BEI Resources) (SARS-CoV-2, UniProt P0DTC2 16-1213). As to the kind of experiment: cell-based or functional assay.
Test [15] addresses T7, HKU1 S2 (40021-V08B, Sino Biological) (HCoV-HKU1, UniProt Q5MQD0 761-1300).
T7 construct: domain: S2
T7 sequence: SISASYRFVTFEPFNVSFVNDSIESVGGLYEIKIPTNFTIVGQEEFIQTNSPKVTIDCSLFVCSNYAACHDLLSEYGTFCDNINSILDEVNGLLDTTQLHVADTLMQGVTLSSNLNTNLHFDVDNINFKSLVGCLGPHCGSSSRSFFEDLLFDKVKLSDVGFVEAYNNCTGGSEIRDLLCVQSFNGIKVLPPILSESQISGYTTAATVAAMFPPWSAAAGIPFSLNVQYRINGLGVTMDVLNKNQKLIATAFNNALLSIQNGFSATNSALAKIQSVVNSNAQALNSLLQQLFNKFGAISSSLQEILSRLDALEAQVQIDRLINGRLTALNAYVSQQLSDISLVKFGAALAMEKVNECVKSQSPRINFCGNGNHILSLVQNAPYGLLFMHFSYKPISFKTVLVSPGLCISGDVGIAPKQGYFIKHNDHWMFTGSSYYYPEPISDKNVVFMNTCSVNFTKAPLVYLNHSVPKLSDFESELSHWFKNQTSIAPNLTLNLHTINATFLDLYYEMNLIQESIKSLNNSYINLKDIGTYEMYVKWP
As to the kind of experiment: ELISA, mAb at 5, 0.5 and 0.05 ug/ml, without and with 8M urea; AUC heat map.

Test [16] has as its target T6, OC43 S2 (40607-V08B1, Sino Biological). Described as above.
For test [17], the target named is T1, MERS-CoV S2 (Sino Biological, 40070-V08). The test is described as above.

Where two headings read alike, the source gives them in different places.

B1: S2P6 (antibody, V domains shown)
VH: EVQLVQSGAEVKKPGASVKVSCKASGYTFTSQYMHWVRQAPGQGLEWIGIINPSGVHTSYAQKFQGRVTLTRDTSTSTLYMELSSLRSEDTAVYYCARGSPKGAFDYWGQGTLVTVSS
VL: not shown
The term Kd denotes the equilibrium constant for the complex coming apart. Read a low Kd as tighter binding. With B1, binding in test [1] was put at a Kd of 8.5 nM.

B2: 1249A8 (antibody, V domains shown)
VH: QVQLVQSGAEVKKPGASMKVSCKASGFTFTDYYMHWVRQAPRQGLEWMGLINPSGSGTAYAQNFQGRVTLARDTSTSTLYMEMGSLTSDDTAVYYCARMDSSGSYDHWGQGTLVTVSS
VL: ETTLTQSPGTLSLSPGDRATLSCRASQTIRISYLAWYQQKPGQAPRLLVYGPSIRATGIPDRFSARGSGTDFTLTISRLEPEDFAVYYCQHYGSSPPRYTFGQGTKLEIK
For B2, the “Neutralization IC50 (µg/ml), Live Virus WT” value in [2] stood at 1.77 µg/mL. Also, the Kd with SARS-CoV Spike protein [3] amounted to 3.2 nM; in test [4], 0.58 nM; in the test with SARS-CoV Spike protein [8], 3.15 nM; in [13], 0.56 nM. Also, the “Binding AUC” value in test [5] came to 24.8; in test [6], 28.2; in [7], 1.4; in [9], 24.8; in [10], 28.2; in [11] it was 1.4. The results for the binding result in test [11] and in [12] were “no binding (tested: 10 ug/ml)” and “binds”, respectively.

B3: 1213H7 (antibody, V domains shown)
VH: QVQLQQSGPEVKKPGTSVKVSCRASGFTFSSSAMQWVRQARGQRLEWIGWIVVGSGNANYAQKFQERVTITRDLSTRTAYMELSSLRSEDTAVYYCAAPYCSGGTCLDGFDIWGQGTMVTVSS
VL: EIVLTQSPGTLSLSPGERATLSCRASQSVSRNYLGWYQQKPGQAPRLLIYGASSRATGIPDRFSGSGSGTDFTLTISRLEPEDFAVYYCQQYGSSPWTFGQGTKVEIK
B3: in test [14], the “ADCP activity, fold over isotype control” value was approximately 8 fold. The binding result in test [15], in [16] and in test [17] was “no binding (tested: 5 ug/ml)” each time.
